{
  "source": "patent US20260055191A1",
  "binders": {"B1": {"name": "sCD89 glycoengineered polypeptide (receptor)", "chain": "QEGDFPMPFISAKSSPVIPLDGSVKIQCQAIREAYLTQLMIIKNSTYREIGRRLKFWNETDPEFVIDHMDANKAGRYQCQYRIGHYRFRYSDTLELVVTGLYGKPFLSADRGLVLMPGEQISLTCSSAHIPFDRFSLAKEGELSLPQHQSGEHPAQFSLGPVDLQVSGIYRCYGWYQRSPYLWSFPSNALELVVTGGGGANSTAPAPAPAHHHHHHHHHH", "modifications": "A2GalNAc2 N-glycans (82.8% A2GalNAc2) at three N-glycosylation sites: native N65 and N79 (numbering according to Uniprot P24071) and the site in the C-terminal glycotag; >95% all occupied"}},
  "target": "purified total human IgA (human) (UniProt P11912)",
  "sequence (P11912 whole entry)": "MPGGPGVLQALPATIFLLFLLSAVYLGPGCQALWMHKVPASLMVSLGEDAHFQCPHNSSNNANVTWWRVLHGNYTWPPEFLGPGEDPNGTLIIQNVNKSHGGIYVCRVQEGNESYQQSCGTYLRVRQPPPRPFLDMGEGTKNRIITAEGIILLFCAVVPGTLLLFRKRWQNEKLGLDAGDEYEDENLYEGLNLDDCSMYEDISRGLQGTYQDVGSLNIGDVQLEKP",
  "assay": "cell-based or functional assay",
  "data": [
    {"binder": "B1", "values": [
      {"measurement": "percent of human IgA target remaining in rat serum (total free+bound human IgA by ELISA) 6 hours after subcutaneous administration of 2.0 mg", "result": "< 5", "unit": "%"}
    ]}
  ]
}
